We go through two molecules from article PMC4534038, “Plasmodium falciparum Hop (PfHop) Interacts with the Hsp70 Chaperone in a Nucleotide-Dependent Fashion and Exhibits Ligand Selectivity” (PLoS ONE, 2015).

Assay [1] addresses T1, Plasmodium falciparum Hsp70-Hsp90 organising protein (PfHop) (Plasmodium falciparum), Q8ILC1.
T1 chain: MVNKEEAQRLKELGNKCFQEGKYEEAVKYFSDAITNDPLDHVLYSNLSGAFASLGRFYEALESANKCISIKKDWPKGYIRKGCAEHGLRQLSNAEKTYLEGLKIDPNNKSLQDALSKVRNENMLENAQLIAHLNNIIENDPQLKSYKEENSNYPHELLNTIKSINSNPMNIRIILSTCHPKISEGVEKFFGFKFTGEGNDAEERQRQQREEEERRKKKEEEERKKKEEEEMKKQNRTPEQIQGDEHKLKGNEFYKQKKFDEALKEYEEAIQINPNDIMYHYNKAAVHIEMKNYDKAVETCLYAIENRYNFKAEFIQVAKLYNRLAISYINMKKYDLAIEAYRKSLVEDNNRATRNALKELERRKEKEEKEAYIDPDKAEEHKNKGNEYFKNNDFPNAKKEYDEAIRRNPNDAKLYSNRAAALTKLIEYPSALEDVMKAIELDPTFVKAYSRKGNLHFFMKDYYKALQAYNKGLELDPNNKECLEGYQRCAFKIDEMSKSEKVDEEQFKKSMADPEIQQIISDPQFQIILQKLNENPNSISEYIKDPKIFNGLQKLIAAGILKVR
Description: SPR; ProteOn XPR36, GLC chip; PfHop immobilised by amine coupling, PfHop as analyte (125-2000 nM); self-association, step not told; 25 C; PBS-Tween with 20 mM EDTA, pH 7.4; with 5 mM ADP. The settings on record: remark: other sources report otherwise. (SPR reads the build-up and loss of mass on a sensor chip optically.)

For assay [2], the target named is T1, Plasmodium falciparum Hsp70-Hsp90 …. The assay is described as follows: SPR; ProteOn XPR36, GLC chip; PfHop immobilised by amine coupling, PfHop as analyte (125-2000 nM); self-association, step not told; 25 C; PBS-Tween with 20 mM EDTA, pH 7.4; with 5 mM ATP. Particulars: remark: other sources report otherwise.
Assay [3] has the same target. Description: SPR; ProteOn XPR36, GLC chip; PfHop immobilised by amine coupling, PfHop as analyte (125-2000 nM); self-association, step not told; 25 C; PBS-Tween with 20 mM EDTA, pH 7.4; no nucleotide. Particulars: remark: other sources report otherwise.
For assay [4], the target named is Plasmodium falciparum Hsp70 (PfHsp70-1), full length, recombinant, his-tagged (Plasmodium falciparum, UniProt Q8IB24 1-677). Description: far-Western, overlay or dot blot; PfHsp70-1 (25, 37.5, 50 μg/mL) resolved by SDS-PAGE, blotted, denatured and renatured with urea (8 M-0 M); overlaid with PfHop in protein-binding buffer (100 mM NaCl, 20 mM Tris pH 7.6, 0.5 mM EDTA, 10% glycerol, 0.1% Tween-20, 2% skim milk, 1 mM DTT) overnight at 4°C; no nucleotide, 5 μM ADP or 5 μM ATP; detected with α-PfHop. The settings on record: both partners purified.

B1: Plasmodium falciparum Hsp70-Hsp90 organising protein (PfHop), Q8ILC1 1-564 (natural protein)
chain: MVNKEEAQRLKELGNKCFQEGKYEEAVKYFSDAITNDPLDHVLYSNLSGAFASLGRFYEALESANKCISIKKDWPKGYIRKGCAEHGLRQLSNAEKTYLEGLKIDPNNKSLQDALSKVRNENMLENAQLIAHLNNIIENDPQLKSYKEENSNYPHELLNTIKSINSNPMNIRIILSTCHPKISEGVEKFFGFKFTGEGNDAEERQRQQREEEERRKKKEEEERKKKEEEEMKKQNRTPEQIQGDEHKLKGNEFYKQKKFDEALKEYEEAIQINPNDIMYHYNKAAVHIEMKNYDKAVETCLYAIENRYNFKAEFIQVAKLYNRLAISYINMKKYDLAIEAYRKSLVEDNNRATRNALKELERRKEKEEKEAYIDPDKAEEHKNKGNEYFKNNDFPNAKKEYDEAIRRNPNDAKLYSNRAAALTKLIEYPSALEDVMKAIELDPTFVKAYSRKGNLHFFMKDYYKALQAYNKGLELDPNNKECLEGYQRCAFKIDEMSKSEKVDEEQFKKSMADPEIQQIISDPQFQIILQKLNENPNSISEYIKDPKIFNGLQKLIAAGILKVR
As usually defined, the Kd is the equilibrium constant for the complex coming apart. A higher Kd goes with lower affinity. The term koff denotes a measure of how fast the partners let go of each other. The low end stands for slow dissociation, the high end for fast dissociation. In general, kon refers to the rate constant with which the complex forms. Higher therefore signals fast association. Regarding B1, the Kd came out at 7.85 nM in assay [1], 5.18 nM in assay [2] and 1.57 nM in assay [3]. In addition, the koff in assay [1] is 0.000464 s⁻¹; in assay [2], 0.000329 s⁻¹; in assay [3], 0.000359 s⁻¹. In addition, the kon in assay [1] was found to be 59100 M⁻¹ s⁻¹; in assay [2], 63500 M⁻¹ s⁻¹; in assay [3] it was 228000 M⁻¹ s⁻¹.

B2: Plasmodium falciparum Hsp70-Hsp90 organising protein (PfHop), recombinant, his-tagged (natural protein, UniProt Q8ILC1 1-564, looked up)
chain: MVNKEEAQRLKELGNKCFQEGKYEEAVKYFSDAITNDPLDHVLYSNLSGAFASLGRFYEALESANKCISIKKDWPKGYIRKGCAEHGLRQLSNAEKTYLEGLKIDPNNKSLQDALSKVRNENMLENAQLIAHLNNIIENDPQLKSYKEENSNYPHELLNTIKSINSNPMNIRIILSTCHPKISEGVEKFFGFKFTGEGNDAEERQRQQREEEERRKKKEEEERKKKEEEEMKKQNRTPEQIQGDEHKLKGNEFYKQKKFDEALKEYEEAIQINPNDIMYHYNKAAVHIEMKNYDKAVETCLYAIENRYNFKAEFIQVAKLYNRLAISYINMKKYDLAIEAYRKSLVEDNNRATRNALKELERRKEKEEKEAYIDPDKAEEHKNKGNEYFKNNDFPNAKKEYDEAIRRNPNDAKLYSNRAAALTKLIEYPSALEDVMKAIELDPTFVKAYSRKGNLHFFMKDYYKALQAYNKGLELDPNNKECLEGYQRCAFKIDEMSKSEKVDEEQFKKSMADPEIQQIISDPQFQIILQKLNENPNSISEYIKDPKIFNGLQKLIAAGILKVR
In the case of B2, the binding result in assay [4] is “binds”.
